# Results published in US20110059051, “Molecular Control of Brown Fat Differentiation and Engergy Expenditure” (Dana-Farber Cancer Institute, Inc., published 2011).
# B1: PRDM16 consensus binding site EMSA probe (dsDNA)
# DNA 1: GATCCGACAAGATAAGATAAGGATCTATAAGAAGATGAGGTATG
# DNA 2: CATACCTCATCTTCTTATAGATCCTTATCTTATCTTGTCGGATC
# Biological target: PRDM16 R998Q (Mus musculus, UniProt A2A935 SEQ:1-1275, R998Q)
# Test: EMSA; R998Q completely loses DNA binding; same buffer as wild type
# Conditions: label: 32P end label
# Chain of PRDM16 R998Q (A2A935 other isoform, or with tags, fused parts or gaps R998Q | R998Q R998Q): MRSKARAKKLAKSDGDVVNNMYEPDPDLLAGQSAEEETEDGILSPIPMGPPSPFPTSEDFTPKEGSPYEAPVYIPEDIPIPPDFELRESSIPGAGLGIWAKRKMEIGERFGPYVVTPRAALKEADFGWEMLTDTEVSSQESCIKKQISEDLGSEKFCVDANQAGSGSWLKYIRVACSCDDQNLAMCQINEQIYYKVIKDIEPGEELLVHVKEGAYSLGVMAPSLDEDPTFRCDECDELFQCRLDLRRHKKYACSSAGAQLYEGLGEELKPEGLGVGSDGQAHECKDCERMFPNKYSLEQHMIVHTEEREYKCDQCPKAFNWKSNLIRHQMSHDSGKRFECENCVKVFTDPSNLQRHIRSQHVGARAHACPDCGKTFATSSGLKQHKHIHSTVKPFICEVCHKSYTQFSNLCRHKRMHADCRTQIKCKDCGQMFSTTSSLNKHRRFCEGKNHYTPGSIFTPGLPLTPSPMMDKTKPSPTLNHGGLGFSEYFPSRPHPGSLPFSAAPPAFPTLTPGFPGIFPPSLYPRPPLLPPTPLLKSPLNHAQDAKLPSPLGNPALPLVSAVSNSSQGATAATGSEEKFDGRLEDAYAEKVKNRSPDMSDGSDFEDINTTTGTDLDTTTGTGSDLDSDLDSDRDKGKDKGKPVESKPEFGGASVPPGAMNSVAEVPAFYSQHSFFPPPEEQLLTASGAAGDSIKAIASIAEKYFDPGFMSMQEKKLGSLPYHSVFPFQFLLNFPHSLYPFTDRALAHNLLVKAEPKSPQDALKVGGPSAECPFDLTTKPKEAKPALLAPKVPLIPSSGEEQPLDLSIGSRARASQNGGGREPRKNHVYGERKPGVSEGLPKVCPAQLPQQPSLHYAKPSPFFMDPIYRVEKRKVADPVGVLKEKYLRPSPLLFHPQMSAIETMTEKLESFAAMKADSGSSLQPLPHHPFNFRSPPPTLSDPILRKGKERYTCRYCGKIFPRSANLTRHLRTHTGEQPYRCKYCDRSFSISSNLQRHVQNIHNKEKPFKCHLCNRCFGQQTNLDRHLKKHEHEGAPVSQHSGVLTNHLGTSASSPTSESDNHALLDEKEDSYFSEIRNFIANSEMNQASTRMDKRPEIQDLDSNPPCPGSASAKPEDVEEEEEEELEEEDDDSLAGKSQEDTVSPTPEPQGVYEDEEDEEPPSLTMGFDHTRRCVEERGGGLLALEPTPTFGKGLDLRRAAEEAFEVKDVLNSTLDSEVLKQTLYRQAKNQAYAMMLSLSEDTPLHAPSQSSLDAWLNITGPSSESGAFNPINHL
binder,measurement,value
B1,binding result,no binding
